From patent publication US20150110788A1 (published 2015) come the findings set out here.

In test [1] the target is FGF2 (UniProt P09038 143-288). Briefly: ELISA.
In test [2] the target is T1, VEGF (UniProt P15692 27-191).
T1 chain: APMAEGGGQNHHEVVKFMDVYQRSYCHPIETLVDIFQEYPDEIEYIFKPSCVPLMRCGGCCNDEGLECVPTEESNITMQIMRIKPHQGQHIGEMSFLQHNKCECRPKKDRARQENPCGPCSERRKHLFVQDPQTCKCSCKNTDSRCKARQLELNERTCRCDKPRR
Briefly: ELISA.

Sequence of FGF2 (P09038 143-288): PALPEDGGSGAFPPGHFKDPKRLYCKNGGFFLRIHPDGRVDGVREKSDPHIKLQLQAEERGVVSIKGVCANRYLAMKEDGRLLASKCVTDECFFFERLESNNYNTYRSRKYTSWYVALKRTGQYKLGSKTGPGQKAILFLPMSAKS

B1: HuGAL-F2 (antibody, V domains shown)
VH: EVQLVQSGAEVKKPGSSVKVSCKASGYTFTNYVINWVRQAPGQGLEWIGYNDPYNDVSKYNEKFKGRATITSDKSTSTAYMELSSLRSEDTAVYYCAKEGGGKYVYAMDSWGQGTTVTVSS
VL: DIQMTQSPSSLSASVGDRVTITCKASQSVSSDVGWYQQKPGKAPKLLIYSGSNRYSGVPSRFSGSGSGTDFTLTISSLQPEDFATYYCQQDYYSPWTFGQGTKVEIK
In test [1], B1 showed a 50% effective concentration (EC50) of 0.1 nM. This lies in the sub-nanomolar range.

B2: X-Ava/F2 (bispecific antibody)
light 1: DIQMTQSPSSLSASVGDRVTITCKASQSVSSDVGWYQQKPGKAPKLLIYSGSNRYSGVPSRFSGSGSGTDFTLTISSLQPEDFATYYCQQDYYSPWTFGQGTKVEIKRTVAAPSVFIFPPSDEQLKSGTASVVCLLNNFYPREAKVQWKVDNALQSGNSQESVTEQDSKDSTYSLSSTLTLSKADYEKHKVYACEVTHQGLSSPVTKSFNRGEC
heavy 1: not shown
light 2: DIQMTQSPSSLSASVGDRVTITCSASQDISNYLNWYQQKPGKAPKVLIYFTSSLHSGVPSRFSGSGSGTDFTLTISSLQPEDFATYYCQQYSTVPWTFGQGTKVEIKSSASTKGPSVFPLAPSSKSTSGGTAALGCLVKDYFPEPVTVSWNSGALTSGVHTFPAVLQSSGLYSLSSVVTVPSSSLGTQTYICNVNHKPSNTKVDKRVEPKSC
heavy 2: not shown
As for B2, the EC50 in test [1] turned out to be 0.35 nM; in test [2], 1.43 nM.
